In patent US20260028391A1 (HUMABS BIOMED, published 2026):
Numbering of substitutions follows the chain as printed. In names and notes the source's numbering stands.

Legend:
[1] = target: fusion glycoprotein (F) of RSV A GFP (Tables 41 and 42) (respiratory syncytial virus A); test: cell-based or functional assay
[2] = target: fusion glycoprotein (F) of RSV B GFP (Tables 41 and 42) (respiratory syncytial virus B); test: cell-based or functional assay
[3] = target: fusion glycoprotein (F) of MPV A GFP (Tables 41 and 43) (metapneumovirus A); test: cell-based or functional assay
[4] = target: fusion glycoprotein of the RSV used in the neutralization assay of Example 1 (respiratory syncytial virus (strain not …)); test: cell-based or functional assay
[5] = target: T1, RSV-A F (RSV A); test: BLI
T1 construct: also called RSV F A

[6] = target: T2, RSV-B F (RSV B); test: BLI
T2 construct: also called RSV F B

[7] = target: RSV A fusion glycoprotein (F), virus of the neutralisation assays of Tables 54 and 57 (RSV A); test: cell-based or functional assay
[8] = target: T3, RSV F B, B Ref (RSV B); test: FACS, % binding to RSV F B variants
T3 construct: whole, on cells

[9] = target: T4, RSV F B K68N-N201S (RSV B); test: FACS, % binding to RSV F B variants
T4 construct: whole, on cells

[10] = target: T5, RSV F B K68N-N208S (RSV B); test: FACS, % binding to RSV F B variants
T5 construct: whole, on cells

[11] = target: T6, RSV F B N201S (RSV B); test: FACS, % binding to RSV F B variants
T6 construct: whole, on cells

[12] = target: T7, RSV F B N208S (RSV B); test: FACS, % binding to RSV F B variants
T7 construct: whole, on cells; also called mutant N208S

[13] = target: T8, RSV F B S443P (RSV B); test: FACS, % binding to RSV F B variants
T8 construct: whole, on cells; also called mutant S443P

[14] = target: T9, RSV F B N208D (RSV B); test: FACS, % binding to RSV F B variants
T9 construct: whole, on cells

[15] = target: fusion glycoprotein (F) of the RSV used in the GFP-based neutralization assay of Table 23 (respiratory syncytial virus); test: cell-based or functional assay
[16] = target: fusion glycoprotein (F) of the MPV (non-D280N) used in the GFP-based neutralization assay of Table 23 (metapneumovirus); test: cell-based or functional assay
[17] = target: RSV fusion glycoprotein (RSV-F) (respiratory syncytial virus); test: biolayer interferometry (BLI), rIgG1 with M428L/N434S
[18] = target: T10, DS-Cav1 RSV F (respiratory syncytial virus); test: ELISA on DS-Cav1 RSV F
T10 construct: also called DC-VCav1

B1: MPK77-rIgG1-LS (antibody, V domains shown)
VH: EVQLVESGGGLVKPGGSLRLSCAASKSFSGYYMIWIRQAPGRGLEWIADISGSSTYTDYADSVKGRFTISRDNTRNTLYLQMNSLRPEDTAVYYCATEQVPSPGPFDLWGPGTLVTVSS
VL: QSVLTQPPSVSGAPGQRVIISCTGSSSNIGAGYDVHWYQQFPGTSPKLLIYRNTNRPSGVPDRFSGFKSGASAALAITGLQAEDEADYYCQSYDRSLSGWAFGGGTKVTVL
IC50 (ng/ml), RSV A GFP neutralization [1]: 6.77 ng/mL | IC50 (ng/ml), RSV B GFP neutralization [2]: 7.32 ng/mL | IC50 (ng/ml), MPV A GFP neutralization [3]: 12.9 ng/mL

B2: MPK169-v2 (antibody, V domains shown)
VH: EVQLVQSGAEVKKPGESLTISCQTSGYSFINYWIGWVRQMPGKGLEWMGVIYPFDSDTEYSPSFRGHVTISADKSINTAYLQWNSLGASDTAMYYCARFTFGIALVSGDVNGEGHAFDVWGRGTLVTVSS
VL: EIVLTQSPPTLSVSPGQRATLSCRASQSVADKLAWYQQRPGQAPRLLIYGASSRATGVPARFSGSGSETEFTLTITSLQSEDFALYYCHQYNNWPHAFGQGTRLVIK
RSV Neutralization - IC50 [4]: 1.4 ng/mL

B3: MPK104-rIgG1-LS (antibody, V domains shown)
VH: EVQLVESGGGLVKPGGSLRLSCAASGFTIDGYGMNWVRQAPGKGLEWVSSISASSNYIYYADSMKGRFTISRDNGKNSLYLQMHSLRVEDTGVYYCARAPLEPPYFDLWGRGTLVTVSS
VL: QSVLTQPPSVSGAPGQRVTISCSGGSSNIGAGYDVHWYQQVPGKGPKVLIYGNNNRPSGVPDRFSGSNFGASASLAITGLQADDEADYFCQSYDRRLGGPVFGGGTKLTVL
IC50 (ng/ml), RSV A GFP neutralization [1]: 7.44 ng/mL | IC50 (ng/ml), RSV B GFP neutralization [2]: 5.23 ng/mL | IC50 (ng/ml), MPV A GFP neutralization [3]: 6.79 ng/mL

B4: MPK176-v4.3 (antibody, V domains shown)
VH: QVQLVQSGAEVKKPGASVRVSCKASGYTLTAYGISWVRQAPGQGLEWMGWISPKHGSTHYAQRFQGRVTMTTDTSTSTAYMELRSLRPDDTAVYFCAREGVDIMAVPWYFDYWGQGTLVAVSS
VL: SYVLTQPPSVSVAPGQTARISCGGNNIGSKSVHWYQQKPGQAPVVVVYDDSKRPSGIPERFSGSNSGNTATLTISGVEAGDEADYFCQVWDSATDHWVFGGGTKLTVL
Kd [5]: 0.139 nM | Kd [6]: 0.0117 nM | IC50, neutralization of RSVA [7]: 4.35 ng/mL | % binding [8]: 34.2% | % binding [9]: 60.4% | % binding [10]: 59.3% | % binding [11]: 60.6% | % binding [12]: 61.2% | % binding [13]: 29.8%

B5: MPK65-v2-v3.1 (antibody, V domains shown)
VH: QVPLVQSGAEVKKPGESLKISCKGSGYSFISYWIGWVRQMPGKGLEWMGVIYPFDADTKYSPSFQGHVTISADKSSNTAYVQWSSLKASDTAMYYCARFTFGIAVVTDDVSGEGQAFEIWGQGTMVTVSS
VL: EIVMMQSPATLSVSPGERATLSCRASQSVAGNLAWYQQRPGQAPRLLIYGASTRATGVPARFSGSGSETEFTLTISSLQSEDFAVYYCHQYSNWPQAFGQGTRLDIK
Kd [5]: 0.192 nM | Kd [6]: 0.639 nM | IC50, neutralization of RSVA [7]: 5.4 ng/mL | % binding [8]: 60.1% | % binding [9]: 22.6% | % binding [10]: 0.052% | % binding [11]: 31.3% | % binding [14]: 0.14% | % binding [12]: 0.029% | % binding [13]: 30.6%

B6: MPK190-rIgG1-LS (antibody, V domains shown)
VH: EVQLVESGGGLVKPGGSLTLSCAASGFSISGYGMNWVRQAPGRGLEWVASISASSTYIYYADSMKGRFTISRDNGKTSLYLQMKSLRAEDTAVYYCARAPIEPPYFDLWGRGTLVTVSS
VL: QSVLTQPPSVSGAPGQRVTISCTGSNSNIGAGYDVHWYQHLPGKAPKVLIYGNNNRPSVVPDRFSGSNSGASASLAISGLQAEDEADYFCQSYDRRLSGPIFGGGTKLTVL
IC50 (ng/ml), RSV A GFP neutralization; sample MPK190-rIgG1-LS/4B6 [1]: 3.73 ng/mL | IC50 (ng/ml), RSV A GFP neutralization; sample MPK190-rIgG1-LS/KYT [1]: 3.88 ng/mL | IC50 (ng/ml), RSV A GFP neutralization; stressed sample MPK190-rIgG1-LS day 0 [1]: 3.21 ng/mL | IC50 (ng/ml), RSV A GFP neutralization; stressed sample MPK190-rIgG1-LS day 7 [1]: 2.94 ng/mL | IC50 (ng/ml), RSV A GFP neutralization; stressed sample MPK190-rIgG1-LS day 12 (day 13 in Table 41) [1]: 7.02 ng/mL | IC50 (ng/ml), RSV B GFP neutralization; sample MPK190-rIgG1-LS/4B6 [2]: 6.39 ng/mL | IC50 (ng/ml), RSV B GFP neutralization; sample MPK190-rIgG1-LS/KYT [2]: 3.36 ng/mL | IC50 (ng/ml), RSV B GFP neutralization; stressed sample MPK190-rIgG1-LS day 0 [2]: 4.1 ng/mL | IC50 (ng/ml), RSV B GFP neutralization; stressed sample MPK190-rIgG1-LS day 7 [2]: 4.4 ng/mL | IC50 (ng/ml), RSV B GFP neutralization; stressed sample MPK190-rIgG1-LS day 12 (day 13 in Table 41) [2]: 4.51 ng/mL | IC50 (ng/ml), MPV A GFP neutralization; sample MPK190-rIgG1-LS/4B6 [3]: 6.16 ng/mL | IC50 (ng/ml), MPV A GFP neutralization; sample MPK190-rIgG1-LS/KYT [3]: 7.9 ng/mL | IC50 (ng/ml), MPV A GFP neutralization; stressed sample MPK190-rIgG1-LS day 0 [3]: 7.22 ng/mL | IC50 (ng/ml), MPV A GFP neutralization; stressed sample MPK190-rIgG1-LS day 7 [3]: 5.8 ng/mL | IC50 (ng/ml), MPV A GFP neutralization; stressed sample MPK190-rIgG1-LS day 13 [3]: 8.39 ng/mL

B7: MPH12-v17 (VH-FRGL-D62E/VL-D25S) (antibody, V domains shown)
VH: QVQLVESGGGLVKPGGSLRLSCAASGFTFSGFYMKWIRQAPGKGLEWVSSISASGSYTNYAESVEGRFTISRDNAKNSLYLQMNSLRAEDTAVYYCARGDSYCGASACHGEFFHKWGQGTLVTVSS
VL: QSVLTQPPSVSGAPGQRVTISCTGSSSNIGADFDVHWYQQLPGTAPKLLIYGNINRPSGVPDRFSGSRSGTSAFLAITRLQAEDEADYYCQSYDRSLHYVFGAGTKVTVL
notes: also called MPH12 VH-FRGL-D62E / MPH12 VL-D25S
RSV IC 50 (ng/mL), GFP-based in vitro neutralization [15]: 44.9 ng/mL | MPV IC50 (ng/mL), GFP-based in vitro neutralization [16]: 30.4 ng/mL | Kd [17]: 0.39 nM

B8: MPH12-v34 (VH-FRGL-S63A/VL-FRGL-D25S) (antibody, V domains shown)
VH: B7 VH with E62D, S63A
VL: B7 VL with R68K, F74S, R79G, A103T
RSV IC 50 (ng/mL), GFP-based in vitro neutralization [15]: 48.6 ng/mL | MPV IC50 (ng/mL), GFP-based in vitro neutralization [16]: 31.9 ng/mL | Kd [17]: 0.5 nM

B9: MPH12 VH / MPH12 VL-D25E (antibody, V domains shown)
VH: B7 VH with A23V, E62D, I70V, Y80F, Q82L, N84S
VL: B7 VL with S26E
notes: MPH12 variant; VH and VL only
EC50 [18]: 43.8 ng/mL

B10: MPH12-v35 (VH-FRGL-D62E/VL-FRGL-D25S) (antibody, V domains shown)
VH: B7 VH
VL: B7 VL with R68K, F74S, R79G, A103T
RSV IC 50 (ng/mL), GFP-based in vitro neutralization [15]: 57.5 ng/mL | MPV IC50 (ng/mL), GFP-based in vitro neutralization [16]: 39.9 ng/mL | Kd [17]: 0.46 nM

B11: MPH12-rIgG1-LS (antibody, V domains shown)
VH: B7 VH with A23V, E62D, I70V, Y80F, Q82L, N84S
VL: B7 VL with S26D
IC50 (ng/ml), RSV A GFP neutralization [1]: 6.55 ng/mL | IC50 (ng/ml), RSV B GFP neutralization [2]: 5.23 ng/mL | IC50 (ng/ml), MPV A GFP neutralization [3]: 13 ng/mL

B12: MPH12-v29 (VH-FRGL-D62E/VL-S26A) (antibody, V domains shown)
VH: B7 VH
VL: B7 VL with S26D, S27A
notes: also called MPH12 VH-FRGL-D62E / MPH12 VL-S26A
RSV IC 50 (ng/mL), GFP-based in vitro neutralization [15]: 60.3 ng/mL | MPV IC50 (ng/mL), GFP-based in vitro neutralization [16]: 35.2 ng/mL | Kd [17]: 0.34 nM

B13: MPH12 VH / MPH12 VL-S26A (antibody, V domains shown)
VH: B7 VH with A23V, E62D, I70V, Y80F, Q82L, N84S
VL: B7 VL with S26D, S27A
notes: MPH12 variant; VH and VL only
EC50 [18]: 50.8 ng/mL
